Measured values published in the Immune Epitope Database (IEDB).
pKd: −log10 of the molar value.

What was measured:
HLA-C*04:01 [1] = assay: IEDB peptide-MHC binding, purified MHC/direct/fluorescence; filed as Kd, often an IC50 or EC50 that approximates it; ≥ and ≤ were set here for values at or beyond the usual limits of such assays
HLA-A*24:03 = assay: IEDB peptide-MHC binding, purified MHC/competitive/fluorescence; filed as Kd, often an IC50 or EC50 that approximates it; ≥ and ≤ were set here for values at or beyond the usual limits of such assays
HLA-B*39:01 = assay: as above; conditions: source organism: Escherichia coli str. K-12 substr. MG1655
HLA-C*12:03 = assay: IEDB peptide-MHC binding, purified MHC/direct/fluorescence; filed as Kd, often an IC50 or EC50 that approximates it; ≥ and ≤ were set here for values at or beyond the usual limits of such assays; conditions: source organism: Bacillus anthracis str. A0488
HLA-C*15:02 = assay: as above; conditions: source organism: Encephalitozoon cuniculi GB-M1
HLA-A*24:02 = assay: IEDB peptide-MHC binding, purified MHC/competitive/fluorescence; filed as Kd, often an IC50 or EC50 that approximates it; ≥ and ≤ were set here for values at or beyond the usual limits of such assays; conditions: source organism: Encephalitozoon cuniculi GB-M1
HLA-A*03:01 [2] = assay: as above; conditions: source organism: Cryptosporidium parvum Iowa II
HLA-B*15:42 = assay: as above
HLA-B*45:06 = assay: as above
HLA-B*83:01 = assay: as above
HLA-C*04:01 [3] = assay: as above; conditions: source organism: Cryptosporidium parvum Iowa II
HLA-A*02:01 = assay: IEDB peptide-MHC binding, purified MHC/direct/fluorescence; filed as Kd, often an IC50 or EC50 that approximates it; ≥ and ≤ were set here for values at or beyond the usual limits of such assays; conditions: source organism: Itapua hantavirus
HLA-A*03:01 [4] = assay: as above; conditions: source organism: Limestone Canyon virus
HLA-C*05:01 = assay: as above; conditions: source organism: Orthohantavirus sinnombreense
HLA-A*03:19 = assay: IEDB peptide-MHC binding, purified MHC/competitive/fluorescence; filed as Kd, often an IC50 or EC50 that approximates it; ≥ and ≤ were set here for values at or beyond the usual limits of such assays; conditions: source organism: Orthohantavirus sinnombreense
HLA-A*26:01 = assay: as above; conditions: source organism: Orthohantavirus sinnombreense
HLA-A*32:07 = assay: as above; conditions: source organism: Orthohantavirus sinnombreense
HLA-A*32:15 = assay: as above; conditions: source organism: Orthohantavirus sinnombreense
HLA-A*68:23 = assay: as above; conditions: source organism: Orthohantavirus sinnombreense
HLA-B*18:01 = assay: as above; conditions: source organism: Orthohantavirus sinnombreense
HLA-B*27:03 = assay: as above; conditions: source organism: Orthohantavirus sinnombreense
HLA-B*51:01 = assay: as above; conditions: source organism: Orthohantavirus sinnombreense
HLA-C*06:02 = assay: as above; conditions: source organism: Orthohantavirus sinnombreense
HLA-C*14:02 = assay: as above; conditions: source organism: Orthohantavirus sinnombreense
[5] = source organism: Escherichia coli str. K-12 substr. MG1655
[6] = source organism: Bacillus anthracis str. A0488
[7] = source organism: Cryptosporidium parvum Iowa II
[8] = source organism: Orthohantavirus sinnombreense

RYDKSAADL was tested, and the pKd (HLA-C*04:01 [1]; [5]) was ≤ 4.70, the pKd (HLA-A*24:03; [5]) was 6.32 and the pKd (HLA-B*39:01) was ≤ 4.70.

For YFIFVRAIL, the pKd (HLA-C*04:01 [1]; [6]) was ≤ 4.70, the pKd (HLA-C*12:03) was 6.36 and the pKd (HLA-A*24:03; [6]) was 7.44.

For TTLSIYFLL, the pKd (HLA-C*15:02) was 5.44 and the pKd (HLA-A*24:02) was 7.06.

VGYYTFHPK was tested, and the pKd (HLA-A*03:01 [2]) was 9.05, the pKd (HLA-B*15:42; [7]) was ≤ 5.30 and the pKd (HLA-B*45:06; [7]) was ≤ 5.30. For the same sequence, the pKd (HLA-B*83:01; [7]) was ≤ 5.30 and the pKd (HLA-C*04:01 [3]) was ≤ 5.30.

In the case of YTFTSLFSL, the pKd (HLA-A*02:01) was 8.82, the pKd (HLA-A*03:01 [4]) was ≤ 4.70 and the pKd (HLA-C*05:01) was ≤ 4.70. The pKd (HLA-A*03:19) was 5.51, the pKd (HLA-A*26:01) was ≤ 4.70 and the pKd (HLA-A*32:07) was 6.07. The pKd (HLA-A*32:15) was 7.09, the pKd (HLA-A*68:23) was 7.85 and the pKd (HLA-B*15:42; [8]) was ≤ 5.30. For the same sequence, the pKd (HLA-B*18:01) was ≤ 4.70, the pKd (HLA-B*27:03) was ≤ 4.70 and the pKd (HLA-B*45:06; [8]) was ≤ 5.30. For the same sequence, the pKd (HLA-B*51:01) was ≤ 4.70, the pKd (HLA-B*83:01; [8]) was ≤ 5.30 and the pKd (HLA-C*06:02) was 6.84. For the same sequence, the pKd (HLA-C*14:02) was 8.24.
